Target: Hemagglutinin of influenza A/Solomon Islands/3/06 (H1N1), on inactivated whole virions (Influenza A virus A/Solomon …)
Test: ELISA, B cell culture supernatant on inactivated whole virions

Binder | OD450
TCN-542 (5079_A16) (antibody, V domains shown) VH: QVQLQESGPGLVKPSQTLSLTCTVSGGSISSGNYYWNWVRQHPGKGLEWIGYIYYRGSTFYNPSLKSRVTISIDTSKNQFSLRLSSVTAADTAVYYCAKDTRSSLDNYQYGMDVWGQGTTVTVSS VL: QTVVTQEPSLTVSPGGTVTLTCASSTGAVTSSYFPNWFQQKPGQAPRPLIYSTTIRHSWTPARFSGSLLGGKAALTLSGVQPEDEADYYCLLYSGGDPVAFGGGTKLTVL | 3.66 OD450
TCN-527 (5086_C06) (antibody, V domains shown) VH: QVQLQESGPGLVKPSETLSLNCAVSGGSISNYYWSWIRQPPGKGLEWIGYISYNGRPKYNPSLTSRVTISVDTSKDQFSLELRSVTAADTALYYCARETRFGELLSPYDAFEIWGQGTMVTVSS VL: DIQMTQSPSSLSASVGDRVTMTCRASQNIRSYLNWYQQRPGTAPKLLIYAASTLHSGVPSRFSGGGSGTDFTLTINNLQPEDFASYYCQQSYDNPQTFGQGTKVEIK | 3.03 OD450
TCN-532 (5262_H18) (antibody, V domains shown) VH: QVQLQESGPGLVKPSETLSLTCTVSGGSVSSETYYWSWIRQPPGKGLEWIGYIYYIGNTDYRPSLKSRVTISLDTSKNQFSLKLSSVTAADTAVYYCARGAYYDSSGYPAFYIWGQGTMVTVSS VL: QSVLTQPPSVSGAPGQRVTISCTGSSSNIGSDYDVHWYKQLPGTAPKLLIFGNSNRPSGVPDRFSGSKSGTSASLAITGLQAEDEADYYCQSYDSSLSGFHVFGSGTKVTVL | 0.06 OD450
TCN-534 (5249_B02) (antibody, V domains shown) VH: QVQLVQSGAEVKKPGSSVKVSCRESGGTFNGYTITWVRQAPGQGLEWMGGIIPMMGTVNYAQKLQGRVTITTDYFTKTAYMDLNNLRSEDTAMYYCVKIRYTGQQLLWGQGTLVTVSS VL: DIQMTQSPSTLSASIGDRVTITCRASQSIASWLAWYQQKPGKAPKLLIYEAVNLESGVPSRFSGSGSGTDFTLTISSLQPDDFATYFCQHYGTISQTFGGGTKVEIK | 3.55 OD450
TCN-543 (5081_G23) (antibody, V domains shown) VH: QVHLVQSGAEVRKPGDSVKVSCKTSGYTFSTYPVAWVRQVPGQGLEWMGWISTYNGNTNFAQNFQGRVTLTTDTTTNTAYMEVRSLKFDDTAVYYCARVEGSYRDFWNNQNRFDPWGQGTLVTVSS VL: SYVLTQPPSVSVAPGQTARISCGGSNIGGKSVHWYQQKPGQAPVLVVYDDSGRPSGIPERFSGSNSGDTATLTISRVEAGDEADYFCQVWDNFGGVFGTGTKVTVL | 3.63 OD450
TCN-539 (5056_A08) (antibody, V domains shown) VH: QVQLVESGGGVVQPGRSLRLSCAASEITFITYAMHWVRQAPGKGLEWVALISDDGSNKFYADSVKGRFTISRDNSKNTLYLQMNSLRAEDTAAYYCAREGVYFDSGTYRGYFDYWGQETLVTVSS VL: EIVLTQSPATLSLSPGERATLSCRASQSVSSYLAWYQQKPGQAPRLLIYDASNRATGIPARFSGSGSGTDFTLTISSLEPEDFAVYYCQQRSHWPPITFGQGTRLEIK | 0.06 OD450
TCN-533 (5256_A17) (antibody, V domains shown) VH: QVQLVQSGADVKKPGSSVTVSCKASGGSFSNYGINWVRQAPGQGLEWMGGIIPLINAPNYAPKFQGRVTITADMFSNIVSLQLTSLRTDDTAVYYCARRKMTTAIDYWGQGTLVTVSS VL: QPVLSQPPSASASLGASVTLTCTLSSGFDNYQVAWYQQRPGKGPRFVMRVGNGGNVASKGDGIPDRFSVSGSGLNRYLTIKNIQEDDESDYYCGADHGSGNNFVSPYVFGGGTKLTVL | 3.54 OD450
TCN-535 (5246_P19) (antibody, V domains shown) VH: QVQLVQSGSEVKKPGTSVKVSCTASGSVFTNYGISWVRQAPGQGLEWMGGIIPLFGAAKYAQKFQGRVTITADESTKTVYMELSRLTSKDTAIYFCAKAPRVYEYYFDQWGQGTPVTVSS VL: EIVLTQSPGTLSLSPGERATLSCRASQSVSSSQLAWYQQKPGQAPRLIIYGASTRATGIPDRFSGSGSGTDFTLTIGRLEPEDFAVFFCQQYSTSPPTFGQGTKVDFK | 3.43 OD450
TCN-523 (5248_A17) (antibody, V domains shown) VH: QVQLVQSGAEVKKPGSSVKVSCKASGGSFSNYAFSWVRQAPGQGLEWMGGTIPLLGTTNYAQKFQGRVTISADQFTSTAYMELGSLRSEDTAVYYCTRRKMTTAFDSWGQGTLVTVSS VL: QPVLTQPPSASASLGASVTLTCTLSSAYSNYKVDWYQQRPGKGPRFVMRVGTGGIVGSKGDGIPDRFSVLGSGLNRYLTIKNIQEEDESDYHCGADHGSGSNFVSPYVFGGGTKLTVL | 3.47 OD450
TCN-528 (5087_P17) (antibody, V domains shown) VH: QVQLVQSGSEVKKPGASVKVSCKASGYTFTNYDINWIRQAPGQGLEWMGWINPNSGTTGSAQRFQGRVTITVDTSITTVYMELSSLRSDDTAIYYCARGRELLRLQHFLTDSQSERRDCFDPWGQGTLVTVSS VL: DIQMTQSPSSLSASVGDRVTITCRANQDIGIYLNWYQQNPGKVPKLLLHGASSLQGGVPSRFSASGSGTDFTLTIHSLQPEDLATYYCQQSRRLPYTFGQGTRVELK | 3.62 OD450
TCN-544 (5082_A19) (antibody, V domains shown) VH: QVQLQESGPGLVKPSETLSLTCTVSRGSIGHYFWSWIRQPPGKGLEWIGYISYSGSTKYNPSLRSRVTISVDTSKNQFSLNLNSVTATDTALYYCAREDYDILTGAGPGMEVWGQGTTVTVSS VL: QSMLTQPPSASGTPGQRVTISCSGSSSNIGSNTVNWFKHLPGTAPKLLIYRNDLRPSGVPDRFSGSKSGTSASLAISGLQSEDEADYYCATWDDSLNGFYVFGTGTKVTVL | 0.32 OD450
TCN-521 (3280_D18) (antibody, V domains shown) VH: EVQLVQSGGGLVQPGGSLRLACVVSGFTVTSNYITWVRQAPGKGLEWVSVIYSHGRAYYSASVNGRFTISRHTSKNTVYLEMNSLRPEDTAVYYCAGGGLVGGYDEYFFDYWGQGTLATVSS VL: ETVLTQSPGTLSLTPGERATLSCRVGQSVSGSHLAWYQQKPGQAPRLLIYGASSRATGIPDRFGGSVSGTDFTLTISRLEPEDSAVYYCQQYGDSRYTFGQGTKLEIK | 3.7 OD450
TCN-547 (5092_F11) (antibody, V domains shown) VH: QVQLQESGPGLVKPSQTLSLTCTVSGDSISSVDHYWSWIRQHPVKGLEWIGFMYYSASTYYNPSLKSRVTISTDTSKNQFSLRLSSVTAADTAVYYCARGTCAGDCSLHYYYYGLDVWGQGRTVTVSS VL: DIQMTQSPSSLSASVGDRVTITCRASQSISSYLNWYQHKPGKAPKVLMYAVSILQSGVPSRFSGSGSGADFTLTISSLQPEDFATYYCQQSYSSPLTFGGGTKVEIK | 0.06 OD450
TCN-530 (5248_H10a) (antibody, V domains shown) VH: QVQLVQSGAEVRKPGSSVKVSCKASGGPFMSYAIGWVRQAPGQGLEWMGGINPVFGRPHYAQKFQGRVTIATDDSTKTSYMELSSLTSEDTGMYYCASRYSRSSPGTFESWGQGTLVTVSS VL: EIVMTQFPATLSVSPGERVTLSCRASQSVSNNLAWYQQKPGQPPRLLIYDASTRATGVPAKFSGTGSGTEFTLSISSLQSEDFAVYYCQQYHNWPPSYSFGLGTKLEIK | 3.52 OD450
TCN-540 (5060_F05) (antibody, V domains shown) VH: QVQLVQSGGGVVQPGRSLRLSCAASGFTFSSYAMHWVRQAPGKGLEWVAIISYDGNDQYYTDSVKGRFTISRDSSKVYLQMHRLRPEDTAVYYCAKEFETSGYFHGSFDYWGQGILVTVSS VL: QSALTQPASVSGSPGQSITISCTGTSSDVGGYNYVSWYQQHPGKAPKLLIYEVTNWPSGVSNRFSGSKSGNTASLTISGLQAEDEADYYCSSYAGSSTWVFGGGTRVTVL | 0.07 OD450
TCN-526 (5084_C17) (antibody, V domains shown) VH: EVLMVESGGGLVQPGGSVRLSCVASGFSFSSHWMTWVRQAPGKGLEWVANIEDDGGDKYYVDSVKGRFIISRDNAKNSVYLQMNSLRAEDTAVYFCARGSGSSDRSDYDPHYYYYLDVWGKGATVTVSS VL: DIQLTQSPSSLSASVGDRVTITCRASQSISRYLNWYQQKPGKAPKLLLFAASTLLDGVPSRFSGSGSGTDFTLTISSLQPEDFATYYCQRNHSPSWTFGQGTRVEIK | 0.06 OD450
TCN-545 (5082_I15) (antibody, V domains shown) VH: QVQLQQWGAGLLKPSETLSLSCAVFGGSFSDYYWTWIRQPPGKGLEWIGEIKHSGRTNYNPSLESRVTISVDTSKNQFSLKLSSVTAADTAIYYCARGTDPDTEGYCRSGSCSAFDFWGQGTLVTVSS VL: EIVLTQSPGTLSLSPGERATLSCRASHFVNYRSLAWYQQTPGQVPRLLIYGASTRATGIPDRFSGSGSGTDFTLTISRLEPEDFAVYFCQQYGGSPRYTFGQGTRLEIK | 3.32 OD450
TCN-546 (5089_L08) (antibody, V domains shown) VH: QVQLQQWGAGLLKPSETLSLTCGVYGGSLSDYYWSWIRQPPGKGLEWIGEINHSGGTNYNPSLKRRVTISVDTSKKQFSLKMNSVTAADTAVYYCARGTDPDTEVYCRAGNCAAFDFWGQGTLVTVSS VL: EIVLTQSPGTLSLSPGERATLSCRASHFVIGRAVAWYQQKPGQAPRLLIYGASSRATGIPDRFSGSGSGTDFTLTISRLETEDFAVFYCQHYGSSPRYAFGQGTKLEIK | 1.95 OD450
TCN-548 (5092_P01) (antibody, V domains shown) VH: QVQLQESGPGLVKPSETLSLTCTVSSGPMSDYYWSWIRQPPGKGLEWIGHVSVSHGGRTKSNPSVMSRVTISVETSKNQFSLKLTSVTAADTAVYYCARLNYYDRSGYHSPDGPSNNWFDPWGQGTLVTVSS VL: not shown | 0.09 OD450
TCN-531 (5091_H13) (antibody, V domains shown) VH: EVQLVESGGDLVQPGRSLKLSCTGSGFTFGDYGVTWVRQAPGKGLEWVGFIRTRPWGGTADTAASVKGRFTISRDDSKSLAYLQMNSLKTEDTAVYYCCRDAPPNVEVASMTNWYFDLWGRGTLVTVSS VL: DIQLTQSPSSLSASVGDRVTITCRASQGILNCLAWYQQKPGKVPNLLMYAASTLQSGVPSRFSGSGFGTDFTLTISSLQPEDVATYYCQTYGGVSTFGGGTKVEIR | 3.23 OD450
TCN-563 (5237_B21) (antibody, V domains shown) VH: QVQLAQSGAEVKRPGSSVKVSCTASGGIFRKNAISWVRQAPGQGLEWMGGIIAVFNTANYAQKFQGRVKITADESGNTAYMELSSLRSDDTAVYYCASHPKYFYGSGSYPDFWGQGTLVTVSS VL: QSALTQPRSVSGSPGQSVTISCTGSSSDVGASNSVSWYQQHPGKAPKLVIYDVTERPSGVPHRFSGSKSGNTASLTVSGLQPEDEADYFCCAYGGKYLVVFGGGTKVTVL | 3.62 OD450
TCN-536 (5095_N01) (antibody, V domains shown) VH: QVQLQQWGAGLLKPSETLSLTCAVYGGSFSVSGYYWSWIRQPPGRGLEWIGEISHGGSTNYNPSLKSRVTISVDTTKNQFSLRLSSVTAADTAVYYCARGTDPDTEVYCRVGNCAAFDYWGQGSLVTVSS VL: EIILAQSPGTLSLSPGERATLSCRASQFVSTRSLAWYQQRPGQAPRLLIYGASSRATGIPDRFSGSGSGTDFTLTISRLEPEDFAVYYCQHYGYSPRYAFGQGSKVEIK | 3.63 OD450

Source: patent US20120207760A1 (THERACLONE SCIENCES, published 2012)
